Source: patent publication US20230159662A1 (Kyowa Kirin, published 2023)

B1: human IgG1 anti-human CCR4 antibody (KM2160), F243L/R292P/Y300L (antibody)
heavy: EVQLVESGGDLMKPGGSLKISCAASGFIFSNYGMSWVRQTPDMRLEWVATISSASTYSYYPDSVKGRFTISRDNAENSLYLQMNSLRSEDTGIYYCGRHSDGNFAFGYWGRGTLVTVSAASTKGPSVFPLAPSSKSTSGGTAALGCLVKDYFPEPVTVSWNSGALTSGVHTFPAVLQSSGLYSLSSVVTVPSSSLGTQTYICNVNHKPSNTKVDKKVEPKSCDKTHTCPPCPAPELLGGPSVFLLPPKPKDTLMISRTPEVTCVVVDVSHEDPEVKFNWYVDGVEVHNAKTKPPEEQYNSTLRVVSVLTVLHQDWLNGKEYKCKVSNKALPAPIEKTISKAKGQPREPQVYTLPPSRDELTKNQVSLTCLVKGFYPSDIAVEWESNGQPENNYKTTPPVLDSDGSFFLYSKLTVDKSRWQQGNVFSCSVMHEALHNHYTQKSLSLSPGK
light: DVLMTQTPLSLPVSLGDQASISCRSSRNIVHINGDTYLEWYLQRPGQSPKLLIYKVSNRFSGVPDRFSGSGSGTDFTLKISRVEAEDLGVYYCFQGSLLPWTFGGGTRLEIRRTVAAPSVFIFPPSDEQLKSGTASVVCLLNNFYPREAKVQWKVDNALQSGNSQESVTEQDSKDSTYSLSSTLTLSKADYEKHKVYACEVTHQGLSSPVTKSFNRGEC
B2: human IgG1 anti-human CCR4 antibody (KM2160), K334E/T359N/T366S (antibody)
heavy: EVQLVESGGDLMKPGGSLKISCAASGFIFSNYGMSWVRQTPDMRLEWVATISSASTYSYYPDSVKGRFTISRDNAENSLYLQMNSLRSEDTGIYYCGRHSDGNFAFGYWGRGTLVTVSAASTKGPSVFPLAPSSKSTSGGTAALGCLVKDYFPEPVTVSWNSGALTSGVHTFPAVLQSSGLYSLSSVVTVPSSSLGTQTYICNVNHKPSNTKVDKKVEPKSCDKTHTCPPCPAPELLGGPSVFLFPPKPKDTLMISRTPEVTCVVVDVSHEDPEVKFNWYVDGVEVHNAKTKPREEQYNSTYRVVSVLTVLHQDWLNGKEYKCKVSNKALPAPIEETISKAKGQPREPQVYTLPPSRDELNKNQVSLSCLVKGFYPSDIAVEWESNGQPENNYKTTPPVLDSDGSFFLYSKLTVDKSRWQQGNVFSCSVMHEALHNHYTQKSLSLSPGK
light: DVLMTQTPLSLPVSLGDQASISCRSSRNIVHINGDTYLEWYLQRPGQSPKLLIYKVSNRFSGVPDRFSGSGSGTDFTLKISRVEAEDLGVYYCFQGSLLPWTFGGGTRLEIRRTVAAPSVFIFPPSDEQLKSGTASVVCLLNNFYPREAKVQWKVDNALQSGNSQESVTEQDSKDSTYSLSSTLTLSKADYEKHKVYACEVTHQGLSSPVTKSFNRGEC
B3: human IgG1 anti-human CCR4 antibody (KM2160), G316D/A378V/D399E (antibody)
heavy: EVQLVESGGDLMKPGGSLKISCAASGFIFSNYGMSWVRQTPDMRLEWVATISSASTYSYYPDSVKGRFTISRDNAENSLYLQMNSLRSEDTGIYYCGRHSDGNFAFGYWGRGTLVTVSAASTKGPSVFPLAPSSKSTSGGTAALGCLVKDYFPEPVTVSWNSGALTSGVHTFPAVLQSSGLYSLSSVVTVPSSSLGTQTYICNVNHKPSNTKVDKKVEPKSCDKTHTCPPCPAPELLGGPSVFLFPPKPKDTLMISRTPEVTCVVVDVSHEDPEVKFNWYVDGVEVHNAKTKPREEQYNSTYRVVSVLTVLHQDWLNDKEYKCKVSNKALPAPIEKTISKAKGQPREPQVYTLPPSRDELTKNQVSLTCLVKGFYPSDIVVEWESNGQPENNYKTTPPVLESDGSFFLYSKLTVDKSRWQQGNVFSCSVMHEALHNHYTQKSLSLSPGK
light: DVLMTQTPLSLPVSLGDQASISCRSSRNIVHINGDTYLEWYLQRPGQSPKLLIYKVSNRFSGVPDRFSGSGSGTDFTLKISRVEAEDLGVYYCFQGSLLPWTFGGGTRLEIRRTVAAPSVFIFPPSDEQLKSGTASVVCLLNNFYPREAKVQWKVDNALQSGNSQESVTEQDSKDSTYSLSSTLTLSKADYEKHKVYACEVTHQGLSSPVTKSFNRGEC
B4: human IgG1 anti-human CCR4 antibody (KM2160), F243L/R292P/Y300L/V305I/P396L (antibody)
heavy: EVQLVESGGDLMKPGGSLKISCAASGFIFSNYGMSWVRQTPDMRLEWVATISSASTYSYYPDSVKGRFTISRDNAENSLYLQMNSLRSEDTGIYYCGRHSDGNFAFGYWGRGTLVTVSAASTKGPSVFPLAPSSKSTSGGTAALGCLVKDYFPEPVTVSWNSGALTSGVHTFPAVLQSSGLYSLSSVVTVPSSSLGTQTYICNVNHKPSNTKVDKKVEPKSCDKTHTCPPCPAPELLGGPSVFLLPPKPKDTLMISRTPEVTCVVVDVSHEDPEVKFNWYVDGVEVHNAKTKPPEEQYNSTLRVVSILTVLHQDWLNGKEYKCKVSNKALPAPIEKTISKAKGQPREPQVYTLPPSRDELTKNQVSLTCLVKGFYPSDIAVEWESNGQPENNYKTTPLVLDSDGSFFLYSKLTVDKSRWQQGNVFSCSVMHEALHNHYTQKSLSLSPGK
light: DVLMTQTPLSLPVSLGDQASISCRSSRNIVHINGDTYLEWYLQRPGQSPKLLIYKVSNRFSGVPDRFSGSGSGTDFTLKISRVEAEDLGVYYCFQGSLLPWTFGGGTRLEIRRTVAAPSVFIFPPSDEQLKSGTASVVCLLNNFYPREAKVQWKVDNALQSGNSQESVTEQDSKDSTYSLSSTLTLSKADYEKHKVYACEVTHQGLSSPVTKSFNRGEC
B5: human IgG1 anti-human CCR4 antibody (KM2160), P230A/E233D/I332E (antibody)
heavy: EVQLVESGGDLMKPGGSLKISCAASGFIFSNYGMSWVRQTPDMRLEWVATISSASTYSYYPDSVKGRFTISRDNAENSLYLQMNSLRSEDTGIYYCGRHSDGNFAFGYWGRGTLVTVSAASTKGPSVFPLAPSSKSTSGGTAALGCLVKDYFPEPVTVSWNSGALTSGVHTFPAVLQSSGLYSLSSVVTVPSSSLGTQTYICNVNHKPSNTKVDKKVEPKSCDKTHTCPPCAAPALLGGPSVFLFPPKPKDTLMISRTPEVTCVVVDVSHEDPEVKFNWYVDGVEVHNAKTKPREEQYNSTYRVVSVLTVLHQDWLNGKEYKCKVSNKALPAPEEKTISKAKGQPREPQVYTLPPSRDELTKNQVSLTCLVKGFYPSDIAVEWESNGQPENNYKTTPPVLDSDGSFFLYSKLTVDKSRWQQGNVFSCSVMHEALHNHYTQKSLSLSPGK
light: DVLMTQTPLSLPVSLGDQASISCRSSRNIVHINGDTYLEWYLQRPGQSPKLLIYKVSNRFSGVPDRFSGSGSGTDFTLKISRVEAEDLGVYYCFQGSLLPWTFGGGTRLEIRRTVAAPSVFIFPPSDEQLKSGTASVVCLLNNFYPREAKVQWKVDNALQSGNSQESVTEQDSKDSTYSLSSTLTLSKADYEKHKVYACEVTHQGLSSPVTKSFNRGEC
B6: human IgG1 anti-human CCR4 antibody (KM2160), K288N/A330S/P396L (antibody)
heavy: EVQLVESGGDLMKPGGSLKISCAASGFIFSNYGMSWVRQTPDMRLEWVATISSASTYSYYPDSVKGRFTISRDNAENSLYLQMNSLRSEDTGIYYCGRHSDGNFAFGYWGRGTLVTVSAASTKGPSVFPLAPSSKSTSGGTAALGCLVKDYFPEPVTVSWNSGALTSGVHTFPAVLQSSGLYSLSSVVTVPSSSLGTQTYICNVNHKPSNTKVDKKVEPKSCDKTHTCPPCPAPELLGGPSVFLFPPKPKDTLMISRTPEVTCVVVDVSHEDPEVKFNWYVDGVEVHNANTKPREEQYNSTYRVVSVLTVLHQDWLNGKEYKCKVSNKALPSPIEKTISKAKGQPREPQVYTLPPSRDELTKNQVSLTCLVKGFYPSDIAVEWESNGQPENNYKTTPLVLDSDGSFFLYSKLTVDKSRWQQGNVFSCSVMHEALHNHYTQKSLSLSPGK
light: DVLMTQTPLSLPVSLGDQASISCRSSRNIVHINGDTYLEWYLQRPGQSPKLLIYKVSNRFSGVPDRFSGSGSGTDFTLKISRVEAEDLGVYYCFQGSLLPWTFGGGTRLEIRRTVAAPSVFIFPPSDEQLKSGTASVVCLLNNFYPREAKVQWKVDNALQSGNSQESVTEQDSKDSTYSLSSTLTLSKADYEKHKVYACEVTHQGLSSPVTKSFNRGEC

molecular target: human CD16a (Val type) stably expressed on NK-92 cells (NK-92/CD16 transfectant) (human, UniProt P08637 17-254); test: cell-based or functional assay
Sequence (P08637 17-254 F176V): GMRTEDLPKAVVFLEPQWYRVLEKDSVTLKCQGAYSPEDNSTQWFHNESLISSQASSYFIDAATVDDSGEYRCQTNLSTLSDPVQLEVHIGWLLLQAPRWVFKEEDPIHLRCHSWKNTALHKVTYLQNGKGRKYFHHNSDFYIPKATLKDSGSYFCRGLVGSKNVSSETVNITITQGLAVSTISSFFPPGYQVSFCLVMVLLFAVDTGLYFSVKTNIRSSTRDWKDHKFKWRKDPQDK

| Binder | relative ADCC activity (AAA = 100) |
| --- | --- |
| B1 | 3 relative, AAA at 0.1 µg/mL = 100 |
| B2 | -110 relative, AAA at 0.1 µg/mL = 100 |
| B3 | -38 relative, AAA at 0.1 µg/mL = 100 |
| B4 | -9 relative, AAA at 0.1 µg/mL = 100 |
| B5 | 53 relative, AAA at 0.1 µg/mL = 100 |
| B6 | -131 relative, AAA at 0.1 µg/mL = 100 |
